Drawing on a protein production outcome set (Wang et al. 2014), this text covers protein production for 21 sequences.

The series can be described thus: label from the status in PepcDB records.
With “MIESVLLLVSGLPGSGKSTLARGMAEALAWPCLDKDDFLEALFDARGIGDAAWRRALSREADSRFLAALQAAPRAVACSWWRHPRGEGGSGTPIGGLARPGRLVLELHCRCPAELAAARFARRVRHPGHLDAQRDPGALSLQLRRAERLGPLGLGQCLILDASVQTDLSGALAWTRDALAAGALADPPRHPLEHHHHHH”, the protein production result is reported as “failed”. With “MDETVAEFIKRTILKIPMNELTTILKAWDFLSENQLQTVNFRQRKESVVQHLIHLCEEKRASISDAALLDIIYMQFHQHQKVWDVFQMSKGPGEDVDLFDMKQFKNSFKKILQRALKNVTVSFRETEENAVWIRIAWGTQYTKPNQYKPTYVVYYSQTPYAFTSSSMLRRNTPLLGQELEATGKIYLRQEEIILDITEMKKACN” the entry was “failed”. The value for “MISILRRGLLVLLAALPLLANAASTPSAHDLVQDTTTRLLADLAANKEKYKQSPNDFYNALNSIVGPVVDADGISRSIMTVKYSRKATPEQMVRFQENFKRSLMQFYGNALLEYNNQGITVSPAKDESGTRTSVDMQVKGNNGAIYPVSYTLEKINDEWKVRNVIINGINIGKLFRDQFADAMQRNGNNLDKTIDGWAGEVAKAKEVTEDAAQKAAQLEHHHHHH” was “not failed”. Turning to “HSFVVLVIGESARKHNYALYGYQKPTTPRLSKRLADNELTLFNATSCATYTTASLECILDSSFKNNAYENLPTYLTKAGIKVFWYSANDGEKNVKVTSYLKNYELIQKCPNCEAIAPYDESLLYNLPDLLKEHSNENVLLILHLAGSHGPNYDNKVPLNFRVFKPYCSSADLSSCSKESLINAYDNTIFYNDYLLDKIISMLENAKQPALMIYLSDHGESLGEEAFYLHGIPKSIAPKEQYEIPFIVYAN”, the protein production entry is “failed”.

Consider “MFAMPTFELDALTTLALALILLGVGAQLKKRSRWLTQLCVPAPVIGGFGFALIVWLLRDQQLLAIKLDTAIQTPLMVAFFTTVGLGGSLGLLRRGGKILFVYLGACWSLALLQNLVGVGAAKALGIDPLLGIMAGAVSLEGGFGAAAAFGPIAENLGAVGATTAALASATFGMVAGGLLGSPLARWLIERNRLQIQADQVSTLQHLESAAQGSVAPLDAPTLLRLLTCILLIMVLGFWIGSALNEHLGIVLPSYVGAMFVAIILRNLNDRARIIDIPDSAVSTLGDVCLGVFLTMAMMSLKFWELEQLGLPLLVILVVQVLVMVLLCVFLLFRLFGGNYDAAVLCAGFMGHGLGATPNAVANMGAICDHYKVFSYKAFIIVPLCGAVLIDIVAIPLITWFINAFA”, for which the protein production result was “failed”. The value for “QNHFHVFVGDLSPQITTEDIKAAFAPFGRISDARVVKDMATGKSKGYGFVSFFNKWDAENAIQQMGGQWLGGRQIRTNWATRKPPAPKSTYES” was “failed”; that for “MNALRKVGAVAWAAVGSLLLSGCEFNGWYDVQLPGGAAADGHAYHVTVEFRDVLDLVPQSAVKVNNVTVGAVEEVQLDGWHARVRLRVADSVKLPANAVAELRQTSMLGEKYVALSTPPGTAPVGRLGDGDRIPLSRSGRNPDIEEVLSALSALLNGGGVAQLKTITVELNKALDGREDRVRSLLKELNTFIGGLDGRRKDIIHALKAVDRLAGRLGKEKKTIAQAVDTMPPALKVLADQRRDLTRMLTALSKLGTTGTKVVNASHDDTVANLKQLRPILQQLNKAGADLPNSLELLTTYPFPRNAVDAVRGDYVNLDITADLDLSALYRNLAGGSDKSGGGNGESTQPETPDIPDLPDLPTVPTPTALPSAPSLPSSPSMPSAPSGGGGPLCPPVCTSSYTTRGEPPEGIDLALAELMLKGVQP” was “failed”. With “MENFLSLFDFFKSKIRYIFLIYTIFTIYMNSKNCFINYVLLIFLDVILIIYSFIFLNKKQKYPFLFIIISTIVYAFIWLFGHCDNIYYFIILDDIFEIKADFKKKLLVAIHSSAFMMVTLKNLIFKNYDLHEILSSIAYSIIIYMAILFVFIFIHKFKDERDKLKILNSNLIEYSFNEREFLLSEERNRISQELHDSIGHSLMALSMNIKYLKGIKNRSNINEELDNMDKVIKESVQTLRSTVYNLKKLDECCDLKKEVYDIIKKFNRLDIVKINFDCASDIEKSTTTIKNTLIKTIKEGITNSLKHGNPTEINVTLTLVNSYIKLIIQDNGVGCQNIKPSAGLNGIKKRIEALNGKVAFESKARKGFTIETEIPGGF” the entry was “failed”; with “MRLILSQCLANLSVRFLMNRNSYNKIAHLWNVARNGFFGREREYLDAILSVAPIGSTILDLGCGTGRPMAEYIVSRGRCVLGVDQSEEMLRLARQKLPHEQWVLSSIESYEPVEGYHGALLWDSLFHIRRTEHELIVSKVVRGLPSGGRLMLTVGGSAHPEFTDFMYGEEFYYDSNTPQETETFLQRLSCRMVIGEYMNLPDGGRDKGRYAIVAEKILEHHHHHH”, “failed”; with “MKLHLEIWRQAGPNSEGHFEPIDVNDAVPQMSVLELLDHVNTGLIEEGKEPFVFASDCREGICGTCGLLVNGRPHGLDKNKPSCQQRLDHVPDGSTLKIEPLRSAAYPVVKDLLVDRSALDRVLEKGGFVSINAGTAPDADTLHQNHESAELALDH”, “failed”. Turning to “MLPKIIDLFSGCGGLALGFEKAGFDIVAGIELMPEACKTISYNLSWRYGKKETHICGDITEIEASVFKNSFGDEGCIVIGGPPCQAYSMAGRGKLRSLGEDRVNIKDARGYLYQDFLRFVFELEARAVVMENVPESTNFGGKNIPEIVCTELTKKGYKAYWTILNSADYGVPQVRERVFVVAIKGDEGKEIKLPNPTHRNEVDVLTQHQKRFEGYKQCQFFVEPNGTTDELKPWVTVGDAFSDLPEVFPTADSKYKLVSLNIEYPYKTEAQNEYQELMRTWYGKEGFGVSANAFRRNTRDFPIFERMQQGDNYIAATKIAEELFYEEAKLFGYEKDSEEYISLYNKMVPQYDKDKFENKWKRLDETKPSHTLVAHLAKDTYSHIHPIEPRGITVREAARLQSFPDDFFFDCSMGDAFKQIGNAVPPLLAYGVARTVLNTFEEE”, the protein production result is “failed”. The value for “GMQGYFFNTRRDLFKDIRVREALSYAFDFEWSNKNLFFGQYTRTKSFFDNSELASFGTPSPQEREWLTPFKEQLPEGIFDQPFTLPTTKGDGNIRPQLKRAQQLLKEAGYEIKNKKLIHTTTGQPFVFELLLLSPAMERVALPFKRNLATLGIEMKIRTIDLTQYINRLREFDYDMIVGVIGQSLSPGNEQRYYWHSSSKDERGSKNYAGIDHPAVDRLVEMVVNAKDRRELVDYTRALDRVLLWNHYVIPHFHNR” was “not failed”; that for “MIIKFTVVICTYNGAKRLPKVLDELQNQIDTEAISWEILVVDNNSTDSTKQVVQQYQNTCFKPGQLRYSFEPEQGLAIARQHAVTAARGELIGFLDDDNIPSLTWVASAYLFAQNHPCAGAYGSRIQGEFEVPPPDDFKRIAALLALTERGSKKLLYEPKKKVLPPGAGLVVRKQAWLENVPKRCFLQGRVCEPYLPGEDLEALLHIQQAGWDIWYNPEMQITHQIPHWRLKKDYLVDLCRGIGLSRYHTRMLSVKPWQAPVLFWLYIFNDVRKLILHLYKYRGRVKSDLIAACELELFIGSLLSPPYIWKAYIKKYFRKQRPVSFSSSVRCADYTQN” was “failed”. With “GSHMLGGKGRPSGVGGYRILVTTSRRPSPRIRSFVKDLSATIPGAFRFTRGHYSMEELAREAIIRGADRIVVVGERRGNPGIIRVYAVEGPERPDNIVSFIVKGVSLSRERRWGLPSLRGGEVLVARPLDSGVAVEFADAFVIAFHARLKPPEAAGYVEAVIESLDARTVAVTFRYGGAPVGPMLRLGKPAEMVKRGRRV” the entry was “not failed”. With “MLSGMSGGMLFIVFAWLIGHAVLRIVPTAYKPVLMVRSRGIALALSAIPLLLAYQLYEVVRVVQSQFSLSFQEAASTVIIQHPVGQSWFVVFTVTVFLGVLLLFPEKRVTANLFFVGVLLLIVSVSWVSHGTALLGWQGFVLNTSHLLASAVWIGTLLMVGWGARPLTDGLKFHRWFSLMVVCAVAVLSVSGLLLMNVIVPEYVPSWALTYGQFLLMKHLLFLPLLLFGLRHLLWLRAEKPLSVVQRSIRIESVVGCVVFFLSAFMTRQTPPHEVAETMQVEPPAWSFLLFHPEGLSVFQQLTLSLTGWGIACLVLAMIGLAASVLSLRHKSLFVFTTSSLTASLFLYVGLMLSVTPVSILVDETRYPTVEAAIQATYEDKTSIDIVLEDETEETTTVIYTVNAHDFVIEKLGIDSETDDFYRLPAAMLTVGGTSVYDEPMKIRTFQVTDGQWKETGSNYTYVTFGMIQEPKETVRLQLHYEDGSYVTELTNGVFYHVYQSDVEMSQPVIDLLAEDGTKVDQFLPAGVEQGVYCH” the entry was “failed”; with “SALTLLEDWCKGMDMDPRKALLIVGIPMECSEVEIQDTVKAGLQPLCAYRVLGRMFRREDNAKAVFIELADTVNYTTLPSHIPGKGGSWEVVVKPRNPDDEFLSRLNYFLKDEGRSMTDVARALGCCSLPAESLDAEVMPQVRSPPLEPPKESMWYRKLKVFSGTASPSPGEETFEDWLEQVTEIMPIWQVSEVEKRRRLLESLRGPALSIMRVLQANNDSITVEQCLDALKQIFGDKEDFGASQFRFLQTSPKIGEKVSTFLLRLEPLLQKAVHKSPLSVRSTDMIRLKHLLARVAMTPALRGKLELLDQRGCPPNFLELMKLIRDEEEWENTEAVMKNKEKPSGRGRGASGRQARAEASVSAPQATVQARSFSDSSPQTIQGGLPPLVKRRRLLGSESTRGEDHGQATYPKAENQTPGREGPQAAGEELGNEAGAGAMSHPKPWET”, “not failed”. In the case of “MSLIEIRKRTLIVETTYHENGPAPAQPLKLAASCAVIRNPYAGRYEPDLMPFMAELRSLGTLLATELVDTLGKDNIEVYSKAAIVGVDGEMEHGAVWHEAGGWAMRSVLGEPKAMVPAVKAVATAGYRMMVPVHYIHASYVRSHFNSIEIGIQDAPRPREILFALVMGTGARVHARLGGLTKEAVSVHDGQR”, the protein production result is “not failed”. As to “MAEQKNHNNELNVEDALTQSEAFLVKNKKAIIGAVVAVIVIVAGAILYKNFYAEPREEKAQAALFKSEQYFEQSAYEQALNGDSIGSIGFLKVADQFSGTKAANLAKAYAGICYQNLGKYEEAIKALDGFSGDDQMVAPAIQGAIGNCYAQLGQLDKATSALLKAADHADNSTLSPIFLLQAGEILMKQGKNEEAVKAFTKIKDKYFQSYQAMDIDKYIEQAKLLKK”, the protein production entry is “failed”.

With “GSSGSSGMQLEIQVALNFIISYLYNKLPRRRVNIFGEELERLLKKKYEGHWYPEKPYKGSGFRCIHIGEKVDPVIEQASKESGLDIDDVRGNLPQDLSVWIDPFEVSYQIGEKGPVKVLYVDDNSGPSSG”, the protein production result was “not failed”.

Turning to “MAENGESSGPPRPSRGPAAAQGSAAAPAEPKIIKVTVKTPKEKEEFAVPENSSVQQFKEAISKRFKSQTDQLVLIFAGKILKDQDTLIQHGIHDGLTVHLVIKSQNRPQGQSTQPSNAAGT”, the protein production result is listed as “failed”. Consider “MSLKVVSVDTLCCDAGWRNYHFVKLTTDEGIVGWSEFDEGFGSPGVTAVIEQLGKRLVGASVMEHERFFAEAYCLTRPATGGVVSEGIGAIENALLDAKAKTLNVPCYELLGGKLRDRVPVYWSHCPTWRINHPKFFGPPVTDLDGVKRTAEEARERQFRAIKTNIFIHDDGPLHAWRPGFAVPFQPALNVDRKVLRNLRAHLEALRDGAGPDVEILLDLNFNAKPEGYLKILRELADFDLFWVEIDSYSPQGLAYVRNHSPHPISSCETLFGIREFKPFFDANAVDVAIVDTIWNGVWQSMKIAAFADAHDINVAPHNFYGHLCTMINANFAAAVPNLRIMETDIDRLAWEDELFTHAPEYQNGELIIPDRPGWGTDPVEEAILAHPPKVMGGLLQYKRSEGHHHHHH”, for which the protein production result was “not failed”.
